Test results: paper PMC8102066, “Differences in interactions between transmembrane domains tune the activation of metabotropic glutamate receptors” (eLife, 2021)

Target: the molecule itself
Test: single-molecule pulldown (SiMPull) with photobleaching step counting; HEK 293T cells surface-labelled with BG-LD555, lysed in 1.2% IGEPAL, diluted in 0.1% IGEPAL buffer; HA-SNAP constructs captured by biotinylated anti-HA antibody on NeutrAvidin/PEG slides; TIRF; percent dimerization = two-step bleaching min-max normalised (5% background, 55% for full-length mGluR2); in some experiments saturating ligands (TASP, MNI …)

B1: HA-SNAP-mGluR3-C127A (receptor, rat, UniProt P31422 23-879, looked up)
chain: LGDHNFMRREIKIEGDLVLGGLFPINEKGTGTEECGRINEDRGIQRLEAMLFAIDEINKDNYLLPGVKLGVHILDTCSRDTYALEQSLEFVRASLTKVDEAEYMAPDGSYAIQENIPLLIAGVIGGSYSSVSIQVANLLRLFQIPQISYASTSAKLSDKSRYDYFARTVPPDFYQAKAMAEILRFFNWTYVSTVASEGDYGETGIEAFEQEARLRNICIATAEKVGRSNIRKSYDSVIRELLQKPNARVVVLFMRSDDSRELIAAANRVNASFTWVASDGWGAQESIVKGSEHVAYGAITLELASHPVRQFDRYFQSLNPYNNHRNPWFRDFWEQKFQCSLQNKRNHRQVCDKHLAIDSSNYEQESKIMFVVNAVYAMAHALHKMQRTLCPNTTKLCDAMKILDGKKLYKEYLLKINFTAPFNPNKGADSIVKFDTFGDGMGRYNVFNLQQTGGKYSYLKVGHWAETLSLDVDSIHWSRNSVPTSQCSDPCAPNEMKNMQPGDVCCWICIPCEPYEYLVDEFTCMDCGPGQWPTADLSGCYNLPEDYIKWEDAWAIGPVTIACLGFLCTCIVITVFIKHNNTPLVKASGRELCYILLFGVSLSYCMTFFFIAKPSPVICALRRLGLGTSFAICYSALLTKTNCIARIFDGVKNGAQRPKFISPSSQVFICLGLILVQIVMVSVWLILETPGTRRYTLPEKRETVILKCNVKDSSMLISLTYDVVLVILCTVYAFKTRKCPENFNEAKFIGFTMYTTCIIWLAFLPIFYVTSSDYRVQTTTMCISVSLSGFVVLGCLFAPKVHIVLFQPQKNVVTHRLHLNRFSVSGTATTYSQSSASTYVPTVCNGREVLDSTTSSL
modifications: SNAP tag labelled with BG-LD555 (BG-LD655 in two-colour SiMPull)
notes: mGluR3, full-length receptor with the intersubunit disulfide cysteine of the LBD mutated; source: HEK 293T, transfected, in lysate; not shown: HA, N-terminal, kept; SNAP, N-terminal, kept
In the case of B1, the “fold reduction in dimerization against SNAP-mGluR3” value is reported as 2 fold.
